Test results reported in patent publication US20200231684A1 (published 2020).

T1: recombinant human IL-36R (ECD) (human, UniProt Q9HB29 20-332)
T1 construct: range 20-332; also called IL-1RL2; IL-1Rrp2
T1 sequence (looked up): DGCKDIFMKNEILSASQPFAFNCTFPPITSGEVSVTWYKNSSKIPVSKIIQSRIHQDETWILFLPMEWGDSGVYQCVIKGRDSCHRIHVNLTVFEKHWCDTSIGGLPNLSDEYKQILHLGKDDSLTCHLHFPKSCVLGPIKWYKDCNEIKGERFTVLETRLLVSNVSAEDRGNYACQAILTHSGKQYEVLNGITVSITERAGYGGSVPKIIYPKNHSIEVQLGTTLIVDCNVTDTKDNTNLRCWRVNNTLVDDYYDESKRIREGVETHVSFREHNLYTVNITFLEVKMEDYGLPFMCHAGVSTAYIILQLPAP

T2: human IL-36R on cells (human, UniProt Q9HB29 20-575)
T2 construct: whole, on cells; also called full-length human IL-36R on HEK293 transfectants; HEK-IL-36R cells
T2 sequence (looked up): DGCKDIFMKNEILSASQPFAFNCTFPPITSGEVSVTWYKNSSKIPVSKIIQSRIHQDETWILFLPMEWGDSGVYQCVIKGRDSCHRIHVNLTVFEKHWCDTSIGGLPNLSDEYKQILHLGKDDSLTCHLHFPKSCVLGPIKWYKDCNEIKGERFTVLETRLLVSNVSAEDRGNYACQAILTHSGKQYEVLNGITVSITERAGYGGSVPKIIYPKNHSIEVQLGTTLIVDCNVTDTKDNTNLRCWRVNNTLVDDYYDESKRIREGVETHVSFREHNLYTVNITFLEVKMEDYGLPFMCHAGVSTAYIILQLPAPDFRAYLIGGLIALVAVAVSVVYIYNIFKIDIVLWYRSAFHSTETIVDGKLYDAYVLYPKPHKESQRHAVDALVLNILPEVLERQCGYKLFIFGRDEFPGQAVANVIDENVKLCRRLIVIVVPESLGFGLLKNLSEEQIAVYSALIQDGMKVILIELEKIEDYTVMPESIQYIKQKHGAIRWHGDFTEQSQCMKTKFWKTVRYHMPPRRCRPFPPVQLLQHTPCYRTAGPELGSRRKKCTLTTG

T3: mouse IL-36R (mouse, UniProt Q9ERS7 22-338)
T3 sequence (looked up): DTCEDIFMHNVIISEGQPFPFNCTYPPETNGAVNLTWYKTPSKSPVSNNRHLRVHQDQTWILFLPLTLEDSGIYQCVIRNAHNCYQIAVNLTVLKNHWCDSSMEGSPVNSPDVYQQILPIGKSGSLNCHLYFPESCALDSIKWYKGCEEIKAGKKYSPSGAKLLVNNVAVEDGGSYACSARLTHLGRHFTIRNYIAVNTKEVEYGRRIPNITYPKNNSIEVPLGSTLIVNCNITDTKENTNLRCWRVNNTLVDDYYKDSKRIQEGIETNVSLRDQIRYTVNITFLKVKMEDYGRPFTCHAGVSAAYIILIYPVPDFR

T4: human IL-1R1 (human, UniProt P14778 18-336, limits assumed)
T4 construct: also called IL-1RI
T4 sequence (looked up): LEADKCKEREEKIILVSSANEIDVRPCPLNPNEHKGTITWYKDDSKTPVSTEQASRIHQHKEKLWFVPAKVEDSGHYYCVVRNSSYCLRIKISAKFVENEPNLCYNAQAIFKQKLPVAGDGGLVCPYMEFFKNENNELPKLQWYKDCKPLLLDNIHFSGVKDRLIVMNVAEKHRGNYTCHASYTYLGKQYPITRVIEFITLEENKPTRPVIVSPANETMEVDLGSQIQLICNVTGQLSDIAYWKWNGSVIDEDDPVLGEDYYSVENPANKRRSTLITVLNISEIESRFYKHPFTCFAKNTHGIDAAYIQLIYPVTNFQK

B1: antibody 78C8 (antibody, V domains shown)
VH: QVQLKESGPVLVAPSQSLSITCTVSGFSLTKFGVHWIRQTPGKGLEWLGVIWAGGPTNYNSALMSRLTISKDISQSQVFLRIDSLQTDDTAMYYCAKQIYYSTLVDYWGQGTSVTVSS
VL: DVLLTQTPLSLPVSLGDQASISCRSSQNIVHSNGNTYLQWYLQKPGQSPKLLIYKVSNRFSGVPDRFSGSGSGTDFTLKISRVEAEDLGVYYCFQGSHVPFTFGAGTKLELK
notes: Mouse monoclonal from hybridoma; also called 78C8D1; Mouse 78C8
B2: antibody 73F6 (antibody, V domains shown)
VH: QVQLKESGPGLVAPSQSLSITCTVSGFSLTNYAVHWVRQFPGKGLEWLGVIWSDGSTDYNAPFKSRLSINKDNSKSQVFFKMNSLQTDDTAIYYCARKGGYSGSWFAYWGQGTLVTVSA
VL: DIVMTQSQKFLSTSVGVRVSVTCKASQDVGTNVLWYQQKIGQSPKALIYSASYRHSGVPDRFTGSGSGTDFTLIITNVQSEDLAEYFCQQYSRYPLTFGPGTKLELK
notes: Mouse monoclonal from hybridoma; also called 73F6F8; Mouse 73F6
B3: antibody 81B4 (antibody, V domains shown)
VH: QVQLQQPGADFVRPGASMRLSCKASGYSFTSSWIHWVKQRPGQGLEWIGEINPGNVRTNYNENFRNKATLTVDKSSTTAYMQLRSLTSADSAVYYCTVVFYGEPYFPYWGQGTLVTVSA
VL: QIVLTQSPAIMSASLGERVTMTCTASSSVSSSYFHWYQQKPGSSPKLWIYRTSNLASGVPGRFSGSGSGTSYSLTISSMEAEDAATYYCHQFHRSPLTFGAGTKLELK
notes: Mouse monoclonal from hybridoma; also called 81B4E11; Mouse 81B4

Legend:
[1] = target: T1, recombinant human IL-36R (ECD); assay: SPR (ProteOn), recombinant human IL-36R at 7 surface densities, global fit
Method: A) Kinetics and binding affinities of anti-IL-36R antibodies binding to recombinant human IL-36R were measured using the Proteon (Bio-Rad, Hercules, Calif.) using material generated from hybridoma following single column purification. […] The binding affinities of the mouse antibodies to human IL-36R run at 7 different surface densities (globally fit) is shown in Table 1. Binding of the chimeric anti-IL36R IgGs is equivalent to the respective mouse leads.

human IL-36R on cells [2] = target: T2, human IL-36R on cells; assay: flow cytometry, HEK293 cells transfected with full-length human IL-36R
Method: HEK293 cells transfected with full-length human IL-36R or NCI/ADR-RES cells were passaged for 24 hours prior to staining. Cells were removed from flasks by rinsing with 10 ml of 5 mM EDTA in PBS, and then incubated at 37° C. for 10 min with an additional 10 ml of 5 mM EDTA and 2.5 ml of Accumax to declump/disperse cells. Antibodies were then diluted to specified concentrations in PBS+2% BSA, and cells incubated for 20 min at room temperature. Excess antibody was then washed by adding 200 μl of PBS and then centrifuged. Secondary reagent was then added at 50 μl per well and cells are incubated for 15 min at room temperature and then washed as above. Cells were resuspended in 200 μl PBS and analyzed by flow cytometry.

[3] = target: T1, recombinant human IL-36R (ECD); assay: SPR (ProteOn), single IL-36R surface coat concentration
Method: A) Kinetics and binding affinities of anti-IL-36R antibodies binding to recombinant human IL-36R were measured using the Proteon (Bio-Rad, Hercules, Calif.) using material generated from hybridoma following single column purification. […] Binding of the chimeric anti-IL36R IgGs is equivalent to the respective mouse leads.

human IL-36R on cells [4] = target: T2, human IL-36R on cells; assay: cell-based or functional assay
mouse IL-36R = target: T3, mouse IL-36R; assay: BLI (Fortebio Octet), antibody injected over antigen surface
Method: (§1) B) Molecular selectivity over mouse IL-36R and human IL-1R1 The mouse and chimeric anti-IL-36R antibodies were also injected over either a mouse IL-36R or a human IL-1R1 surface at a concentration of 100 nM. The binding signal to mouse IL-36R and to human IL-1R1 for these antibodies measured using the Fortebio Octet (Fortebio, Menlo Park, Calif.) is zero, which indicates these antibodies selectively bind to human IL-36R.

human IL-1R1 = target: T4, human IL-1R1; assay: as above
Method: as §1

human IL-36R on cells [5] = target: T2, human IL-36R on cells; assay: cell-based or functional assay; remark: listed apart in the source
[6] = target: cynomolgus IL-36R on BaF/3 cells (cynomolgus, UniProt A0A2K5WSK9 20-558); assay: cell-based or functional assay
Chain of cynomolgus IL-36R on BaF/3 cells (A0A2K5WSK9 entry or part of it): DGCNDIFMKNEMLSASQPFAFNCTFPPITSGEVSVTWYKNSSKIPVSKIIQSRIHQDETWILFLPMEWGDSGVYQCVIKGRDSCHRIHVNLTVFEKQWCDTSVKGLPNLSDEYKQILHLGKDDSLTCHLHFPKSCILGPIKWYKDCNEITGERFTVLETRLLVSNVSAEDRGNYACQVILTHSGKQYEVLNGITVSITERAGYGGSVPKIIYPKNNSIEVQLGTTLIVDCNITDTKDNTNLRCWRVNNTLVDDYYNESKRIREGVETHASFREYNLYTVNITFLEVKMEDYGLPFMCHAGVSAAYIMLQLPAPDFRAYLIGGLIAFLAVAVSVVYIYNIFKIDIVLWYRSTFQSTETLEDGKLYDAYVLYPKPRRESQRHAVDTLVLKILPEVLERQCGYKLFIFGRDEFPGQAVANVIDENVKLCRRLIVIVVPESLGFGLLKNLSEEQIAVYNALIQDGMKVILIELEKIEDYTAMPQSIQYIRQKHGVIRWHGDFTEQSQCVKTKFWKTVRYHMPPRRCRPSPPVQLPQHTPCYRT

| Binder | Kd [1] | EC50 (human IL-36R on cells [2]) | Kd [3] | IC90, IL-8 release, human primary keratinocytes (NHK), trun-IL-36a (human IL-36R on cells [4]) | IC90, IL-8 release, human primary keratinocytes (NHK), trun-IL-36b (human IL-36R on cells [4]) | IC90, IL-8 release, human primary keratinocytes (NHK), trun-IL-36g (human IL-36R on cells [4]) | IC90, pNFκB, human primary keratinocytes (NHK), trun-IL-36a (human IL-36R on cells [4]) | IC90, pNFκB, human primary keratinocytes (NHK), trun-IL-36b (human IL-36R on cells [4]) | IC90, pNFκB, human primary keratinocytes (NHK), trun-IL-36g (human IL-36R on cells [4]) | binding result (mouse IL-36R) | binding result (human IL-1R1) | IC90, GM-CSF release, NCI/ADR-RES cells, trun-IL-36a (human IL-36R on cells [5]) | IC90, GM-CSF release, NCI/ADR-RES cells, trun-IL-36b (human IL-36R on cells [5]) | IC90, GM-CSF release, NCI/ADR-RES cells, trun-IL-36g (human IL-36R on cells [5]) | IC90, IL-6 release, NCI/ADR-RES cells, trun-IL-36a (human IL-36R on cells [5]) | IC90, IL-6 release, NCI/ADR-RES cells, trun-IL-36b (human IL-36R on cells [5]) | IC90, IL-6 release, NCI/ADR-RES cells, trun-IL-36g (human IL-36R on cells [5]) | IC90, IL-8 release, NCI/ADR-RES cells, trun-IL-36a (human IL-36R on cells [5]) | IC90, IL-8 release, NCI/ADR-RES cells, trun-IL-36b (human IL-36R on cells [5]) | IC90, IL-8 release, NCI/ADR-RES cells, trun-IL-36g (human IL-36R on cells [5]) | further results |
| --- | --- | --- | --- | --- | --- | --- | --- | --- | --- | --- | --- | --- | --- | --- | --- | --- | --- | --- | --- | --- | --- |
| B1 | 0.063 nM | 0.529 nM | < 0.1 nM | 19.3 nM | 34 nM | 3.6 nM | 11.6 nM | 14.2 nM | 10.6 nM | no binding (tested: 100 nM) | no binding (tested: 100 nM) | 7.1 nM | 2 nM | 1.7 nM | 14 nM | 5.8 nM | 1.3 nM | 4.7 nM | 1.1 nM | 1.4 nM | IC90, pNFκB, NCI/ADR-RES cells, trun-IL-36a (human IL-36R on cells [5]): 5.8 nM; IC90, pNFκB, NCI/ADR-RES cells, trun-IL-36b (human IL-36R on cells [5]): 6.8 nM; IC90, pNFκB, NCI/ADR-RES cells, trun-IL-36g (human IL-36R on cells [5]): 4.6 nM; IC90, pNFκB, BaF/3 cynomolgus IL-36R cells, trun-IL-36a [6]: 1 nM; IC90, pNFκB, BaF/3 cynomolgus IL-36R cells, trun-IL-36b [6]: 2.1 nM; IC90, pNFκB, BaF/3 cynomolgus IL-36R cells, trun-IL-36g [6]: 1.5 nM |
| B2 | 0.025 nM | 0.746 nM | < 0.1 nM | 17.8 nM | 26 nM | 2.1 nM | 8.2 nM | 5.2 nM | 1.3 nM | no binding (tested: 100 nM) | no binding (tested: 100 nM) | 5.9 nM | 1.7 nM | 1.4 nM | 19 nM | 5.1 nM | 2.2 nM | 3.2 nM | 0.8 nM | 0.9 nM | IC90, pNFκB, NCI/ADR-RES cells, trun-IL-36a (human IL-36R on cells [5]): 2.8 nM; IC90, pNFκB, NCI/ADR-RES cells, trun-IL-36b (human IL-36R on cells [5]): 3 nM; IC90, pNFκB, NCI/ADR-RES cells, trun-IL-36g (human IL-36R on cells [5]): 1.5 nM; IC90, pNFκB, BaF/3 cynomolgus IL-36R cells, trun-IL-36a [6]: 0.5 nM; IC90, pNFκB, BaF/3 cynomolgus IL-36R cells, trun-IL-36b [6]: 0.7 nM; IC90, pNFκB, BaF/3 cynomolgus IL-36R cells, trun-IL-36g [6]: 0.8 nM |
| B3 | 0.024 nM | 0.302 nM | < 0.1 nM | 0.7 nM | 1.2 nM | 0.5 nM | 1.3 nM | 1.1 nM | 0.5 nM | no binding (tested: 100 nM) | no binding (tested: 100 nM) | 0.8 nM | 0.3 nM | 0.4 nM | 0.8 nM | 0.3 nM | 0.2 nM | 0.7 nM | 0.2 nM | 0.3 nM | IC90, pNFκB, NCI/ADR-RES cells, trun-IL-36a (human IL-36R on cells [5]): 1.7 nM; IC90, pNFκB, NCI/ADR-RES cells, trun-IL-36b (human IL-36R on cells [5]): 1.4 nM; IC90, pNFκB, NCI/ADR-RES cells, trun-IL-36g (human IL-36R on cells [5]): 1.2 nM; IC90, pNFκB, BaF/3 cynomolgus IL-36R cells, trun-IL-36a [6]: 2.4 nM; IC90, pNFκB, BaF/3 cynomolgus IL-36R cells, trun-IL-36b [6]: 3.5 nM; IC90, pNFκB, BaF/3 cynomolgus IL-36R cells, trun-IL-36g [6]: 5.1 nM |
